According to patent US20210122826A1 (MIT, published 2021):
Like-named read-outs stand apart in the source and are kept apart here.

T1: cynomolgus CD161 (cynomolgus)
T1 construct: UniProt A0A2K5WYI1; also called cynoCD161
T1 chain: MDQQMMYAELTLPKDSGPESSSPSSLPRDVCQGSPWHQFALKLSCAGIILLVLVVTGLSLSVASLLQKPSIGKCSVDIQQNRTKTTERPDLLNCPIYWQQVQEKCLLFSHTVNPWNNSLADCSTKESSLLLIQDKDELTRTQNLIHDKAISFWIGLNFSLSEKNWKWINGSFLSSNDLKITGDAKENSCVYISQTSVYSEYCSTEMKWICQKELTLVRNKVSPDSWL

T2: Human KLRF2 (human, UniProt D3W0D1 1-207)
T2 construct: also called hKLRF2
T2 sequence: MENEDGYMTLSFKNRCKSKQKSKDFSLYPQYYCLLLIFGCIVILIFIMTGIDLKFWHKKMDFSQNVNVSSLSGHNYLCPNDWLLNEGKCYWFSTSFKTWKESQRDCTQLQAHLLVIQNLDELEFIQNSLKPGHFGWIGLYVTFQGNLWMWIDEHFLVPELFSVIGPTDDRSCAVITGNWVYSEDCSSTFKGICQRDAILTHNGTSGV

T3: Human Clec12B (human, UniProt Q2HXU8 1-276)
T3 construct: also called hClec12B
T3 sequence: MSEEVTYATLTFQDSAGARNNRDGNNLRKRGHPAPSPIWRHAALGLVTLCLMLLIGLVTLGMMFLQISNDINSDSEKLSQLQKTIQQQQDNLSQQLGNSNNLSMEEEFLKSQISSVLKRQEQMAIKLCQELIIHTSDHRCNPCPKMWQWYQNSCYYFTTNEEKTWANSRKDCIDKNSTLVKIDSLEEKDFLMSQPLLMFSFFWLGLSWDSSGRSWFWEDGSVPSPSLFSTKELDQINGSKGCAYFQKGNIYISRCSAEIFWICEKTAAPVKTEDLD

T4: Human KLRG1 (human, UniProt Q96E93 1-195)
T4 construct: also called hKLRG1
T4 sequence: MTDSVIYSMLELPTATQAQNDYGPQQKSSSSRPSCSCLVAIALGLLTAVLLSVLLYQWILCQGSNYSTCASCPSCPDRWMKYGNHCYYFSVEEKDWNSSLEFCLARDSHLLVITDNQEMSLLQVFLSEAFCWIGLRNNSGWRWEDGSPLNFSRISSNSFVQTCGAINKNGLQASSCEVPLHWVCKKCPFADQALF

T5: Human CD209 (human, UniProt Q9NNX6 1-404)
T5 construct: also called hCD209
T5 sequence: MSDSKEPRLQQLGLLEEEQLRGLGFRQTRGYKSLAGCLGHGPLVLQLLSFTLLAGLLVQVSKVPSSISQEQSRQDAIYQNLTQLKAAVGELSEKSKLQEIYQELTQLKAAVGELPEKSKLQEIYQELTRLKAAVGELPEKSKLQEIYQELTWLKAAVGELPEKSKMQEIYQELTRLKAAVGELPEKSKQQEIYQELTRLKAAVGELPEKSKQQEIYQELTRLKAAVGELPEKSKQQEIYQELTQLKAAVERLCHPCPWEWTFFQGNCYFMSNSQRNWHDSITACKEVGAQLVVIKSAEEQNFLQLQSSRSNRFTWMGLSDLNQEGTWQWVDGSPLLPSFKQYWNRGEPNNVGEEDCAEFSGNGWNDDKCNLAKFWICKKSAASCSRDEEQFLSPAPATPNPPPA

T6: Human Clec4E (human, UniProt Q9ULY5 1-219)
T6 construct: also called hClec4E
T6 sequence: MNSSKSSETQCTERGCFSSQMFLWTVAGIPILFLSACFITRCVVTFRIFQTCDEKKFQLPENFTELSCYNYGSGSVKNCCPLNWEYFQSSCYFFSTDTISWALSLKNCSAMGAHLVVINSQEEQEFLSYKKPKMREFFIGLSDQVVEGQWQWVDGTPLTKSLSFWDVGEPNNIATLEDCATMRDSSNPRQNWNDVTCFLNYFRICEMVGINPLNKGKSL


How the values were obtained:
cynomolgus CD161 [1] = biological target: T1, cynomolgus CD161; experiment: flow, Jurkat
Human KLRF2 = biological target: T2, Human KLRF2; experiment: flow, Jurkat, 100 nM Ab
Human Clec12B = biological target: T3, Human Clec12B; experiment: flow, Jurkat, 100 nM Ab
Human KLRG1 = biological target: T4, Human KLRG1; experiment: flow, Jurkat, 100 nM Ab
Human OLR1 = biological target: T7, Human OLR1 (human, UniProt P78380 1-273); experiment: flow, Jurkat, 100 nM Ab
T7 construct: also called hOLR1

Human CD209 [2] = biological target: T5, Human CD209; experiment: flow, Jurkat, 100 nM Ab
Human Clec4E [3] = biological target: T6, Human Clec4E; experiment: flow, Jurkat, 100 nM Ab
human CD161 [4] = biological target: T8, human CD161 (human, UniProt Q12918 1-225); experiment: flow, Jurkat, 100 nM Ab
T8 construct: UniProt Q12918; also called hCD161; KLRB1

Human CD209 [5] = biological target: T5, Human CD209; experiment: flow, Jurkat, 100 nM Ab; remark: listed apart in the source
Human Clec4E [6] = biological target: T6, Human Clec4E; experiment: flow, Jurkat, 100 nM Ab; remark: listed apart in the source
human CD161 [7] = biological target: T8, human CD161; experiment: flow, Jurkat, Ab titration
cynomolgus CD161 [8] = biological target: T1, cynomolgus CD161; experiment: flow, Jurkat, Ab titration
human CD161 [9] = biological target: T8, human CD161; experiment: flow, Jurkat, Ab titration; remark: listed apart in the source
Method: (§1) To measure binding, Jurkat cells expressing hCD161 or cynoCD161 were incubated with 0.01 nM to either 0.1 μM or 0.3 μM anti-CD161 antibodies as listed in Table 12. Jurkat cells expressing cynoCD161 were prepared using the methods described in Example 7. Volumes were sufficiently large such that ligand was depleted less than 10%. Following a three-hour incubation on ice, cells were washed and stained with fluorescent anti-human secondary antibody. The cells were washed, and labeling of antibody binding was assessed by flow cytometry to determine the MFI as a function of anti-CD161 antibody concentration. Raw MFI (top panel) and MFI normalized to the maximum value in each dataset (bottom panel) are shown for binding to hCD161 (FIG. 7C) and to cynoCD161 (FIG. 7D).

cynomolgus CD161 [10] = biological target: T1, cynomolgus CD161; experiment: flow, Jurkat, Ab titration
Method: as §1

human CD161 [11] = biological target: T8, human CD161; experiment: flow cytometry titration of soluble IgG on Jurkat hCD161+ cells, fluorescent secondary antibody, MFI against Ab concentration (log [M])
Method: as §1

cynomolgus CD161 [12] = biological target: T1, cynomolgus CD161; experiment: flow cytometry titration of soluble IgG on Jurkat cynoCD161+ cells, fluorescent secondary antibody, MFI against concentration (log [M])
Method: as §1

Binder | binding result (cynomolgus CD161 [1]) | MFI normalized to WT (Human KLRF2) | MFI normalized to WT (Human Clec12B) | MFI normalized to WT (Human KLRG1) | MFI normalized to WT (Human OLR1) | MFI normalized to WT (Human CD209 [2]) | MFI normalized to WT (Human Clec4E [3]) | MFI normalized to WT (human CD161 [4]) | MFI normalized to WT (Human CD209 [5]) | MFI normalized to WT (Human Clec4E [6]) | fold binding vs HP-3G10 (human CD161 [7]) | fold binding vs HP-3G10 (cynomolgus CD161 [8]) | Kd (human CD161 [9]) | Kd (cynomolgus CD161 [10]) | EC50 (read off the curve) (human CD161 [11]) | EC50 (read off the curve) (cynomolgus CD161 [12])
anti-CD161 KW17 (antibody, V domains shown, Human, lambda light chain; scFv-Fc or full IgG not clear; also called KW17-Fc) VH: not shown VL: QSVLTQPPSVSGAPGQRVTISCTGSSSNIGAGYDVHWYQQLPGTAPKLLIYGNSNRPSGVPDRFSGSKSGTSASLAITGLQAEDEADYYCQSYDSSHTVFGGGTQLTVL | no binding (tested: 100 nM) | 1.01 | 1.04 | 1.05 | 0.98 | 0.92 | 0.94 | – | – | – | – | – | – | – | – | –
KW1.2.1 (antibody, V domains shown) VH: EVQLVESGGGLVQPGGSLRLSCAASGSTFSSYAMSWVRQAPGKGLEWVSTISGSGGSTYYADSVKGRFTISRDNSRNTLYLQMNSLRAEDTAVYYCARGGLIPSGFDYWGQGTLVTVSS VL: DIQMTQSPSSPSASVGDRVTITCRASQSISSYLNWYQQKPGKAPKLLIYAASSLLSGVPSRFSGSGSGTDFTLTISSLQPEDFATYYCQQTYSTPLTFGQGTKVEIK | – | – | – | – | – | – | – | 172 | 0.96 | 0.99 | ~10 fold | ~10 fold | 0.233 nM | 0.247 nM | ~200 pM | –
KM12.2.3 (antibody, human IgG1, V domains shown) VH: EVQLVESGGGLVQPGGSLRLSCAASGFTFSSYAMSWIRQAPGKGLEWVSAISGSGGSIYYADSVKGRFTISRDNSKNTLYLQMNSLRAEDTAVYYCARGYSDSYFYGPYYTFDYWGQGTLVTVSS VL: DIQMTQSPSSLSASVGDRVTITCRASQGISSYLNWYQQKPGKAPKLLIYAASSLQSGVSSRFSGSGSGTDFTLTISSLQPEDFATYYCQQSYNTPLTFGQGTKVEIK | – | – | – | – | – | – | – | 122 | 1.48 | 1.68 | – | – | – | – | – | –
KW7.2.2 (antibody, V domains shown) VH: not shown VL: DIQMTQSPSSLSASVGDRVTITCRASQSISSYLNWYQQKPGKAPRFLIYAASSLQSGVPSRFSGSGSGTDFTLTISSLQPEDFATYYCQQTYSTPLTFGQGTKVEIK | – | – | – | – | – | – | – | 145 | 1 | 1.1 | ~10 fold | ~10 fold | 0.207 nM | 0.24 nM | ~200 pM | –
KW1.3.12 (antibody, human IgG1, V domains shown) VH: EVQLVESGGGLVQPGGSLRLSCAASGFTFSSYAMSWVRQAPGKGLEWVSTISGSGGSTYYADSVKGRFTISRDNSRNTLYLQMNSLRAEDTAVYYCARGGLIPSGFDYWGQGTLVTVSS VL: DIQMTQSPSSLSASVGDRVTITCRASQSISSYLNWYQQKPGKAPKLLIYAASSLLSGVPSRFSGSGSGTDFTLTISSLQPEDFATYYCQQTYSAPLTFGQGTKVEIK | – | – | – | – | – | – | – | 163 | 0.91 | 1.17 | ~10 fold | ~10 fold | 0.249 nM | 0.274 nM | ~400 pM | ~300 pM
KW7.3.7 (antibody, V domains shown) VH: EVQLVESGGGLVQPGGSLRLSCAASGFTFSSYAMSWVRQAPGKGLEWVSATSGSGGSTYYADSAKGRFTISRDNSKNTLYLQMNSLRAEDTAVYYCARGGYLPDAFDYWGRGTLVTVSS VL: DIQMTQSPSSLSASVGDRVTITCWASQSISSYLNWYQQEPGKAPKLLIYAASSLQSGVPSRFSGSGSGTDFTLTISSLQPEDFATYYCQQTYSTPLTFGQGTKVEIK | – | – | – | – | – | – | – | – | 0.85 | 0.88 | – | – | – | – | – | –

Further lines, results first:

binding result (cynomolgus CD161 [1]) | MFI normalized to WT (Human KLRF2) | MFI normalized to WT (Human Clec12B) | MFI normalized to WT (Human KLRG1) | MFI normalized to WT (Human OLR1) | MFI normalized to WT (Human CD209 [2]) | MFI normalized to WT (Human Clec4E [3]) | MFI normalized to WT (human CD161 [4]) | MFI normalized to WT (Human CD209 [5]) | MFI normalized to WT (Human Clec4E [6]) | fold binding vs HP-3G10 (human CD161 [7]) | fold binding vs HP-3G10 (cynomolgus CD161 [8]) | Kd (human CD161 [9]) | Kd (cynomolgus CD161 [10]) | EC50 (read off the curve) (human CD161 [11]) | EC50 (read off the curve) (cynomolgus CD161 [12]) | Binder
no binding (tested: 100 nM) | – | – | – | – | – | – | 143 | 0.94 | 0.97 | – | – | – | – | – | – | KW17.3.4 (antibody, V domains shown) VH: not shown VL: QSVLTQPPSVSGAPGQRVTISCTGSSSNIGAGYDVHWYQQLPGTAPKLLIYGNSNRPSGVPDRFSGSQSGTSASLAITGLQAEDEADYYCQSYNSGHTVFGGGTQLTVL
no binding (tested: 100 nM) | – | – | – | – | – | – | 150 | 0.81 | 0.85 | – | – | – | – | – | – | KW9.3.3 (antibody, V domains shown) VH: EVQLVESGGGLVQPGGSLRLSCAASGFTFSSYAMSWVRQAPGKGLEWVSAISGSGGRTYYADSVKGRFTISRDNSKNTLYLQMNSLRAEDTAMYYCARGPGYMYLYGDSFFEYWGQGTLVTVSS VL: DIQMAQSPSSLSASVGDRVTITCRASQGISSYLNWYQQKPGKAPKLLIYAASSLQSGVPSRFSGSGYGTDFTLTISSLQPEDFATYYCQQSYSTPLTFGQGTKVEIK
– | – | – | – | – | – | – | 166 | 0.97 | 1.01 | ~10 fold | ~10 fold | 0.0925 nM | 0.225 nM | ~90 pM | ~200 pM | KM12.4.7 (antibody, V domains shown) VH: EVQLVESGGGLVQPGGSLRLPCAASGFTFSSYAMSWIRQAPGKGLEWVSAISGSGGSIYYADSVKGRFTISRDNSKNTLYLQMDSLRAEDTAVYYCARGYSDSYFYGPYYTFDYWGQGTLVTVSS VL: not shown
